In paper PMC4161438 (PLoS Pathogens, 2014):
Where no end group is shown, it is not given here.

T1: elastase (Homo sapiens, UniProt P08246)
T1 construct: purchased Elastin Products Company, Inc. (Owensville, MO, USA)
T1 sequence (P08246 30-267): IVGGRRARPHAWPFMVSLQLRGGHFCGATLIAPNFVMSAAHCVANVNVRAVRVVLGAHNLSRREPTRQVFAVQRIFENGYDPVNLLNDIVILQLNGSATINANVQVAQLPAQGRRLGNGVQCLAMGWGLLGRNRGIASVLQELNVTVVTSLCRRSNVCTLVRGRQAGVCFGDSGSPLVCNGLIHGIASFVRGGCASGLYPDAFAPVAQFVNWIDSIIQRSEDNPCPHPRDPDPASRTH

B1: DNAse: DNAse (Dornase alfa, Genentech Inc.) (protein, UniProt P24855 23-282, looked up)
Deoxyribonuclease-1: LKIAAFNIQTFGETKMSNATLVSYIVQILSRYDIALVQEVRDSHLTAVGKLLDNLNQDAPDTYHYVVSEPLGRNSYKERYLFVYRPDQVSAVDSYYYDDGCEPCGNDTFNREPAIVRFFSRFTEVREFAIVPLHAAPGDAVAEIDALYDVYLDVQEKWGLEDVMLMGDFNAGCSYVRPSQWSSIRLWTSPTFQWLIPDSADTTATPTHCAYDRIVVAGMLLRGAVVPDSALPFNFQAAYGLSDQLAQAISDHYPVEVMLK

Legend:
elastase = biological target: T1, elastase; conditions: pathologic conditions associated with neutrophil dysfunction; ref [22]; cited from earlier work
Text: Neutrophils also release granule contents containing enzymes such as elastase, proteinase-3, and cathepsin G. Elastase, a particularly inflammatory enzyme, interferes with thrombomodulin function, and cleaves TF pathway inhibitor (TFPI), the physiological inhibitor of the extrinsic pathway. […] Elastase also induces proteinase-activated receptor activation, contributes to cytokine production and processing, inactivates metalloprotease inhibitors, deg ...

inflammation = conditions: ref [14]; cited from earlier work
Text: (§1) In fact, platelets […] ...

neutrophils [1] = assay: NETs formation; type: cell-based, human; conditions: DNAse (Dornase alfa) 4 µg/ml; not shown
Method: Left panel, non-activated neutrophil (no PMA). Formation of NETs was visualized under confocal microscopy, using antibody against citrullinated histone. Representative experiment is shown (4 different donors). B) Quantification. Performed as described in Methods.
(§2) Whole blood (5 mL collected in 0.5 mL of 3.2% sodium citrate) from healthy donors was diluted in an equal volume of PBS, layered over 5 mL of HISTOPAQUE solution (10771, Sigma Aldrich), and centrifuged for 40 min, at 400×g, at room temperature. The lower interphase having granulocytes was collected and transferred to a 15-ml Falcon tube and resuspended in 10 ml ammonium chloride lysis buffer (1.7 M NH4Cl, […], 1 mM EDTA) to lyse red blood cells. Lysis was carried out twice followed by centrifugation for 10 min at 400×g. […]
Cells were fixed with 500 µl of 4% paraformaldehyde (final concentrations) for 10 min, washed 3 times with PBS and incubated for 10 min with blocking solution (PBS, 10%FBS, 5 mg/ml BSA). […] NETs were quantified according to Farley et al. Briefly, NETs were identified on digitalized images as Hoechst-positive fibrils emanating from cells with an overall length at least twice as long as the cell diameter and were counted for at least two fields of view per variable. Results were expressed as the percentage of NETs/total number of granulocytes.

baboons = conditions: NETs-related thrombosis, DNase treatment; ref [19]; cited from earlier work
Text: as §1

neutrophils [2] = assay: Neutrophil-induced coagulation; type: cell-based, human; conditions: DNAse (Dornase alfa) 4 µg/ml, 1 h, then PMA 50 nM, 3 h
Method: A) Platelet aggregation. Washed human platelets were stimulated with elastase only (500 nM, left panel), or cathepsin G only (110 nM, middle tracing), or elastase followed by cathepsin G (right tracing). […] Aggregation response was monitored by turbidimetry using a Lumi-Aggregometer. D) TFPI cleavage. […] After 2 h, reactions were stopped by addition of LDS loading buffer (under reducing conditions, 10 mM DTT), boiled for 5 min, and loaded in 4–12% Nu-PAGE gel. Gels were Coomassie Blue-stained. E) Neutrophil-induced coagulation. […] Fifty µl of this suspension was added to 50 µl of plasma, and reactions were started by addition of CaCl2 (12.5 mM, final concentration)(*, p<0.05).
as §2, with “400×g. Neutrophils were washed with PBS and resuspended at 1×10^6 cells/mL in high glucose DMEM (GIBCO). Neutrophils were kept on ice.” for “400×g.”

Molecule	clinical trial results (elastase)	inflammation in several in vivo models (inflammation)	NETs-associated fluorescence signal (neutrophils [1])	thrombosis in baboons (baboons)	pro-coagulant activity of PMA-activated neutrophils (neutrophils [2])
Elafin: potent elastase inhibitor purified from bronchial secretions (AQEPVKGPVSTKPGSCPIILIRCAMLNPPNRCLKDTDCPGIKKCCEGSCGMACFVPQ; ends and bridges not checked; cysteine pairing not given here; UniProt P19957 61-117, looked up)	mixed results	blocks inflammation			
B1			completely abrogated	prevented	reversed
